Target: T1, CD3ε homodimer protein (human, UniProt P07766 23-126, limits assumed)
T1 construct: also called CD3 (CD3ε)
Assay: SPR Biacore T200, CD3ε homodimer on chip;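 further: Light-chain single-residue variant antibodies injected over amine-coupled CD3ε homodimer on a CM4 chip at 25 °C, bound amount divided by that of the GLS3000-containing antibody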
Description: Each one-amino acid altered form constructed, expressed, and purified in the paragraph (6-2) was evaluated using Biacore T200 (GE Healthcare Japan Corp.). An appropriate amount of CD3ε homodimer protein was immobilized onto Sensor chip CM4 (GE Healthcare Japan Corp.) by the amine coupling method. Then, the antibody having an appropriate concentration was injected thereto as an analyte and allowed to interact with the CD3ε homodimer protein on the sensor chip. Then, the sensor chip was regenerated by the injection of 10 mmol/L glycine-HCl (pH 1.5). The assay was conducted at 25° C., and HBS-EP+ (GE Healthcare Japan Corp.) was used as a running buffer. […] Each parameter was calculated using Biacore T200 Evaluation Software (GE Healthcare Japan Corp.).
Specifically, when the amount of the GLS3000-containing antibody bound was defined as X and the amount of the L chain one-amino acid altered form bound was defined as Y, a value of Z (ratio of amounts bound)=Y/X was used.

T1 sequence (P07766 23-126 limits assumed): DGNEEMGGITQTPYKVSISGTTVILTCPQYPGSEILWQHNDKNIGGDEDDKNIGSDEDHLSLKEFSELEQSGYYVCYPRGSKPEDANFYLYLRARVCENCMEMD

B1: GLS3000 N28L one-arm antibody (antibody, human IgG1, kappa, L234A L235A, N297A, name in Kabat numbering)
heavy: QVQLVESGGGVVQPGRSLRLSCAASGFTFSNAWMHWVRQAPGKGLEWVAQIKAKSNNYATYYAESVKGRFTISRDDSKNSLYLQMNSLKTEDTAVYYCRYVHYGAYYGVDAWGQGTTVTVSSASTKGPSVFPLAPSSKSTSGGTAALGCLVKDYFPEPVTVSWNSGALTSGVHTFPAVLQSSGLYSLSSVVTVPSSSLGTQTYICNVNHKPSNTKVDKKVEPKSCDKTHTCPPCPAPEAAGGPSVFLFPPKPKDTLMISRTPEVTCVVVDVSHEDPEVKFNWYVDGVEVHNAKTKPREEQYASTYRVVSVLTVLHQDWLNGKEYKCKVSNKALPAPIEKTISKAKGQPREPQVYTLPPSRCELTKNQVSLSCAVKGFYPSDIAVEWESNGQPENNYKTTPPVLDSDGSFFLVSKLTVDKSRWQQGNVFSCSVMHEALHNHYTQKSLSLSPDYKDDDDK
chain: EPKSSDKTHTCPPCPAPELLGGPSVFLFPPKPKDTLMISRTPEVTCVVVDVSHEDPEVKFNWYVDGVEVHNAKTKPREEQYNSTYRVVSVLTVLHQDWLNGKEYKCKVSNKALPAPIEKTISKAKGQPREPQVCTLPPSRDELTKNQVSLWCLVKGFYPSDIAVEWESNGQPENNYKTTPPVLDSDGSFFLYSKLTVDKSRWQQGNVFSCSVMHEALHNRYTQKSLSLSP
light: DIVMTQSPLSLPVTPGEPASISCRSSQSLVHSLRNTYLHWYQQKPGQAPRLLIYKVSNRFSGVPDRFSGSGSGTDFTLKISRVEAEDVGVYYCGQGTQVPYTFGQGTKLEIKRTVAAPSVFIFPPSDEQLKSGTASVVCLLNNFYPREAKVQWKVDNALQSGNSQESVTEQDSKDSTYSLSSTLTLSKADYEKHKVYACEVTHQGLSSPVTKSFNRGEC
  ratio of amount bound vs unaltered GLS3000: 0.39

B2: GLS3000 N28M one-arm antibody (antibody, human IgG1, kappa, L234A L235A, N297A, name in Kabat numbering)
heavy: QVQLVESGGGVVQPGRSLRLSCAASGFTFSNAWMHWVRQAPGKGLEWVAQIKAKSNNYATYYAESVKGRFTISRDDSKNSLYLQMNSLKTEDTAVYYCRYVHYGAYYGVDAWGQGTTVTVSSASTKGPSVFPLAPSSKSTSGGTAALGCLVKDYFPEPVTVSWNSGALTSGVHTFPAVLQSSGLYSLSSVVTVPSSSLGTQTYICNVNHKPSNTKVDKKVEPKSCDKTHTCPPCPAPEAAGGPSVFLFPPKPKDTLMISRTPEVTCVVVDVSHEDPEVKFNWYVDGVEVHNAKTKPREEQYASTYRVVSVLTVLHQDWLNGKEYKCKVSNKALPAPIEKTISKAKGQPREPQVYTLPPSRCELTKNQVSLSCAVKGFYPSDIAVEWESNGQPENNYKTTPPVLDSDGSFFLVSKLTVDKSRWQQGNVFSCSVMHEALHNHYTQKSLSLSPDYKDDDDK
chain: EPKSSDKTHTCPPCPAPELLGGPSVFLFPPKPKDTLMISRTPEVTCVVVDVSHEDPEVKFNWYVDGVEVHNAKTKPREEQYNSTYRVVSVLTVLHQDWLNGKEYKCKVSNKALPAPIEKTISKAKGQPREPQVCTLPPSRDELTKNQVSLWCLVKGFYPSDIAVEWESNGQPENNYKTTPPVLDSDGSFFLYSKLTVDKSRWQQGNVFSCSVMHEALHNRYTQKSLSLSP
light: DIVMTQSPLSLPVTPGEPASISCRSSQSLVHSMRNTYLHWYQQKPGQAPRLLIYKVSNRFSGVPDRFSGSGSGTDFTLKISRVEAEDVGVYYCGQGTQVPYTFGQGTKLEIKRTVAAPSVFIFPPSDEQLKSGTASVVCLLNNFYPREAKVQWKVDNALQSGNSQESVTEQDSKDSTYSLSSTLTLSKADYEKHKVYACEVTHQGLSSPVTKSFNRGEC
  ratio of amount bound vs unaltered GLS3000: 0.39

B3: GLS3000 N28P one-arm antibody (antibody, human IgG1, kappa, L234A L235A, N297A, name in Kabat numbering)
heavy: QVQLVESGGGVVQPGRSLRLSCAASGFTFSNAWMHWVRQAPGKGLEWVAQIKAKSNNYATYYAESVKGRFTISRDDSKNSLYLQMNSLKTEDTAVYYCRYVHYGAYYGVDAWGQGTTVTVSSASTKGPSVFPLAPSSKSTSGGTAALGCLVKDYFPEPVTVSWNSGALTSGVHTFPAVLQSSGLYSLSSVVTVPSSSLGTQTYICNVNHKPSNTKVDKKVEPKSCDKTHTCPPCPAPEAAGGPSVFLFPPKPKDTLMISRTPEVTCVVVDVSHEDPEVKFNWYVDGVEVHNAKTKPREEQYASTYRVVSVLTVLHQDWLNGKEYKCKVSNKALPAPIEKTISKAKGQPREPQVYTLPPSRCELTKNQVSLSCAVKGFYPSDIAVEWESNGQPENNYKTTPPVLDSDGSFFLVSKLTVDKSRWQQGNVFSCSVMHEALHNHYTQKSLSLSPDYKDDDDK
chain: EPKSSDKTHTCPPCPAPELLGGPSVFLFPPKPKDTLMISRTPEVTCVVVDVSHEDPEVKFNWYVDGVEVHNAKTKPREEQYNSTYRVVSVLTVLHQDWLNGKEYKCKVSNKALPAPIEKTISKAKGQPREPQVCTLPPSRDELTKNQVSLWCLVKGFYPSDIAVEWESNGQPENNYKTTPPVLDSDGSFFLYSKLTVDKSRWQQGNVFSCSVMHEALHNRYTQKSLSLSP
light: DIVMTQSPLSLPVTPGEPASISCRSSQSLVHSPRNTYLHWYQQKPGQAPRLLIYKVSNRFSGVPDRFSGSGSGTDFTLKISRVEAEDVGVYYCGQGTQVPYTFGQGTKLEIKRTVAAPSVFIFPPSDEQLKSGTASVVCLLNNFYPREAKVQWKVDNALQSGNSQESVTEQDSKDSTYSLSSTLTLSKADYEKHKVYACEVTHQGLSSPVTKSFNRGEC
  ratio of amount bound vs unaltered GLS3000: 0.36

B4: GLS3000 N28Q one-arm antibody (antibody, human IgG1, kappa, L234A L235A, N297A, name in Kabat numbering)
heavy: QVQLVESGGGVVQPGRSLRLSCAASGFTFSNAWMHWVRQAPGKGLEWVAQIKAKSNNYATYYAESVKGRFTISRDDSKNSLYLQMNSLKTEDTAVYYCRYVHYGAYYGVDAWGQGTTVTVSSASTKGPSVFPLAPSSKSTSGGTAALGCLVKDYFPEPVTVSWNSGALTSGVHTFPAVLQSSGLYSLSSVVTVPSSSLGTQTYICNVNHKPSNTKVDKKVEPKSCDKTHTCPPCPAPEAAGGPSVFLFPPKPKDTLMISRTPEVTCVVVDVSHEDPEVKFNWYVDGVEVHNAKTKPREEQYASTYRVVSVLTVLHQDWLNGKEYKCKVSNKALPAPIEKTISKAKGQPREPQVYTLPPSRCELTKNQVSLSCAVKGFYPSDIAVEWESNGQPENNYKTTPPVLDSDGSFFLVSKLTVDKSRWQQGNVFSCSVMHEALHNHYTQKSLSLSPDYKDDDDK
chain: EPKSSDKTHTCPPCPAPELLGGPSVFLFPPKPKDTLMISRTPEVTCVVVDVSHEDPEVKFNWYVDGVEVHNAKTKPREEQYNSTYRVVSVLTVLHQDWLNGKEYKCKVSNKALPAPIEKTISKAKGQPREPQVCTLPPSRDELTKNQVSLWCLVKGFYPSDIAVEWESNGQPENNYKTTPPVLDSDGSFFLYSKLTVDKSRWQQGNVFSCSVMHEALHNRYTQKSLSLSP
light: DIVMTQSPLSLPVTPGEPASISCRSSQSLVHSQRNTYLHWYQQKPGQAPRLLIYKVSNRFSGVPDRFSGSGSGTDFTLKISRVEAEDVGVYYCGQGTQVPYTFGQGTKLEIKRTVAAPSVFIFPPSDEQLKSGTASVVCLLNNFYPREAKVQWKVDNALQSGNSQESVTEQDSKDSTYSLSSTLTLSKADYEKHKVYACEVTHQGLSSPVTKSFNRGEC
  ratio of amount bound vs unaltered GLS3000: 0.37

B5: GLS3000 N28S one-arm antibody (antibody, human IgG1, kappa, L234A L235A, N297A, name in Kabat numbering)
heavy: QVQLVESGGGVVQPGRSLRLSCAASGFTFSNAWMHWVRQAPGKGLEWVAQIKAKSNNYATYYAESVKGRFTISRDDSKNSLYLQMNSLKTEDTAVYYCRYVHYGAYYGVDAWGQGTTVTVSSASTKGPSVFPLAPSSKSTSGGTAALGCLVKDYFPEPVTVSWNSGALTSGVHTFPAVLQSSGLYSLSSVVTVPSSSLGTQTYICNVNHKPSNTKVDKKVEPKSCDKTHTCPPCPAPEAAGGPSVFLFPPKPKDTLMISRTPEVTCVVVDVSHEDPEVKFNWYVDGVEVHNAKTKPREEQYASTYRVVSVLTVLHQDWLNGKEYKCKVSNKALPAPIEKTISKAKGQPREPQVYTLPPSRCELTKNQVSLSCAVKGFYPSDIAVEWESNGQPENNYKTTPPVLDSDGSFFLVSKLTVDKSRWQQGNVFSCSVMHEALHNHYTQKSLSLSPDYKDDDDK
chain: EPKSSDKTHTCPPCPAPELLGGPSVFLFPPKPKDTLMISRTPEVTCVVVDVSHEDPEVKFNWYVDGVEVHNAKTKPREEQYNSTYRVVSVLTVLHQDWLNGKEYKCKVSNKALPAPIEKTISKAKGQPREPQVCTLPPSRDELTKNQVSLWCLVKGFYPSDIAVEWESNGQPENNYKTTPPVLDSDGSFFLYSKLTVDKSRWQQGNVFSCSVMHEALHNRYTQKSLSLSP
light: DIVMTQSPLSLPVTPGEPASISCRSSQSLVHSSRNTYLHWYQQKPGQAPRLLIYKVSNRFSGVPDRFSGSGSGTDFTLKISRVEAEDVGVYYCGQGTQVPYTFGQGTKLEIKRTVAAPSVFIFPPSDEQLKSGTASVVCLLNNFYPREAKVQWKVDNALQSGNSQESVTEQDSKDSTYSLSSTLTLSKADYEKHKVYACEVTHQGLSSPVTKSFNRGEC
  ratio of amount bound vs unaltered GLS3000: 0.32

B6: GLS3000 N28T one-arm antibody (antibody, human IgG1, kappa, L234A L235A, N297A, name in Kabat numbering)
heavy: QVQLVESGGGVVQPGRSLRLSCAASGFTFSNAWMHWVRQAPGKGLEWVAQIKAKSNNYATYYAESVKGRFTISRDDSKNSLYLQMNSLKTEDTAVYYCRYVHYGAYYGVDAWGQGTTVTVSSASTKGPSVFPLAPSSKSTSGGTAALGCLVKDYFPEPVTVSWNSGALTSGVHTFPAVLQSSGLYSLSSVVTVPSSSLGTQTYICNVNHKPSNTKVDKKVEPKSCDKTHTCPPCPAPEAAGGPSVFLFPPKPKDTLMISRTPEVTCVVVDVSHEDPEVKFNWYVDGVEVHNAKTKPREEQYASTYRVVSVLTVLHQDWLNGKEYKCKVSNKALPAPIEKTISKAKGQPREPQVYTLPPSRCELTKNQVSLSCAVKGFYPSDIAVEWESNGQPENNYKTTPPVLDSDGSFFLVSKLTVDKSRWQQGNVFSCSVMHEALHNHYTQKSLSLSPDYKDDDDK
chain: EPKSSDKTHTCPPCPAPELLGGPSVFLFPPKPKDTLMISRTPEVTCVVVDVSHEDPEVKFNWYVDGVEVHNAKTKPREEQYNSTYRVVSVLTVLHQDWLNGKEYKCKVSNKALPAPIEKTISKAKGQPREPQVCTLPPSRDELTKNQVSLWCLVKGFYPSDIAVEWESNGQPENNYKTTPPVLDSDGSFFLYSKLTVDKSRWQQGNVFSCSVMHEALHNRYTQKSLSLSP
light: DIVMTQSPLSLPVTPGEPASISCRSSQSLVHSTRNTYLHWYQQKPGQAPRLLIYKVSNRFSGVPDRFSGSGSGTDFTLKISRVEAEDVGVYYCGQGTQVPYTFGQGTKLEIKRTVAAPSVFIFPPSDEQLKSGTASVVCLLNNFYPREAKVQWKVDNALQSGNSQESVTEQDSKDSTYSLSSTLTLSKADYEKHKVYACEVTHQGLSSPVTKSFNRGEC
  ratio of amount bound vs unaltered GLS3000: 0.45
